Test results reported in patent publication US20130281677A1 (CEPHALON AUSTRALIA, published 2013).
Numbering of substitutions follows the chain as printed. Numbers in names are those of the source.

B1: hu39D10 (humanized 39D10, anti-IL-5 antibody) with native human IgG4 Fc / kappa (antibody)
heavy: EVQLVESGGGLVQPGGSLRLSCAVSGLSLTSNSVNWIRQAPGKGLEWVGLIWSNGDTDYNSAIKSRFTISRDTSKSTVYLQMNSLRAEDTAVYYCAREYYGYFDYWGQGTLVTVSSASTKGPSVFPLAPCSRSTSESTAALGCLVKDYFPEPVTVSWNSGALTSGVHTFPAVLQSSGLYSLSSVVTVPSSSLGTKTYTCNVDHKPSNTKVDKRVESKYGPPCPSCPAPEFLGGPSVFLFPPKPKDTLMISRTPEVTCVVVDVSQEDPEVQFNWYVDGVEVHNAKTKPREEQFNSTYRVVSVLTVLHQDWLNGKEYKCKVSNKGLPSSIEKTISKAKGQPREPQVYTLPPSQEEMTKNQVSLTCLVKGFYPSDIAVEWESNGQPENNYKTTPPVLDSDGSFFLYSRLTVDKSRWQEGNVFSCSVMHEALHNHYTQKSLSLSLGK
light: DIQMTQSPSSLSASVGDRVTITCLASEGISSYLAWYQQKPGKAPKLLIYGANSLQTGVPSRFSGSGSATDYTLTISSLQPEDFATYYCQQSYKFPNTFGQGTKVEVKRTVAAPSVFIFPPSDEQLKSGTASVVCLLNNFYPREAKVQWKVDNALQSGNSQESVTEQDSKDSTYSLSSTLTLSKADYEKHKVYACEVTHQGLSSPVTKSFNRGEC
notes: Full IgG4/kappa expressed in HEK293 6E cells; also called CTIL-5-10gH/-gL6; hu39D10 with unmodified Fc; not shown: human IgG4 heavy chain constant region, native (cloned from Quickclone cDNA library)
B2: hu39D10 with the YTE mutations (M252Y, S254T, T256E) in the IgG4 Fc (antibody, name in EU numbering)
heavy: EVQLVESGGGLVQPGGSLRLSCAVSGLSLTSNSVNWIRQAPGKGLEWVGLIWSNGDTDYNSAIKSRFTISRDTSKSTVYLQMNSLRAEDTAVYYCAREYYGYFDYWGQGTLVTVSSASTKGPSVFPLAPCSRSTSESTAALGCLVKDYFPEPVTVSWNSGALTSGVHTFPAVLQSSGLYSLSSVVTVPSSSLGTKTYTCNVDHKPSNTKVDKRVESKYGPPCPSCPAPEFLGGPSVFLFPPKPKDTLYITREPEVTCVVVDVSQEDPEVQFNWYVDGVEVHNAKTKPREEQFNSTYRVVSVLTVLHQDWLNGKEYKCKVSNKGLPSSIEKTISKAKGQPREPQVYTLPPSQEEMTKNQVSLTCLVKGFYPSDIAVEWESNGQPENNYKTTPPVLDSDGSFFLYSRLTVDKSRWQEGNVFSCSVMHEALHNHYTQKSLSLSLGK
light: B1 light
notes: domain: IgG4 heavy chain constant region; Substitution positions are EU numbers, not positions on the UniProt entry; also called hu39D10 YTE variant
B3: hu39D10 with the YTE mutations and the S228P hinge mutation (YTE+S228P) in IgG4 (antibody)
heavy: B2 heavy with S224P
light: B1 light
notes: also called hu39D10 with the 4 amino acid substitutions; S228P+YTE variant

Tests used:
[1] = molecular target: T1, human FcRn extracellular domain / beta2 microglobulin complex (human, UniProt P55899 24-290; P61769 21-119); test: ELISA, pH 6.0; FcRn/β2m complex captured by anti-β2m antibody, antibody titrated, anti-human kappa HRP detection
T1 construct: range 24-290;range 21-119; Both chains were co-expressed in HEK293 6E cells and purified on IgG-Sepharose; In the ELISA the complex was captured by a coated anti-β2 microglobulin antibody at pH 6.0; also called FcRn/β2 microglobulin complex
T1 sequence (P55899 24-290 limits assumed, form in doubt, chain 1 of 2): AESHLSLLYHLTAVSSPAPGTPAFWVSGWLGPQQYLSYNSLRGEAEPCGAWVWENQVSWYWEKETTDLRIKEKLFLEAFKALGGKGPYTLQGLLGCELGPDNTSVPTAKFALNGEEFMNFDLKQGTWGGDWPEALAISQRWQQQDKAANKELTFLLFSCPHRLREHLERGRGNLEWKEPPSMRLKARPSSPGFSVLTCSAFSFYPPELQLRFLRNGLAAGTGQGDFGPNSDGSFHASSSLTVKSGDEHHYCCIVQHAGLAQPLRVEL
T1 sequence (P61769 21-119 limits assumed, form in doubt, chain 2 of 2): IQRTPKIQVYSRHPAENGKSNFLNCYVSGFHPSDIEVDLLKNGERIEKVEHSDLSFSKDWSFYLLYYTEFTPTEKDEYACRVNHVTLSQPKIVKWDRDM
Method: (§1) Maxisorp 96-well plates (Thermo Fisher Scientific, Rochester, N.Y.) were coated with 5 ug/ml anti-β₂ microglobulin monoclonal antibody. Wells were then washed with PBS and treated with Superblock blocking solution (Thermo Fisher Scientific, Rockford, Ill.). Then, the FcRn/β₂ microglobulin complex was diluted to 5 ug/ml in SPBS6T (50 mM sodium phosphate buffer pH 6.0, 150 mM NaCl, 0.05% Tween-20) and added to allow for capture by the coated anti-β₂ microglobulin antibody for 60 min at room temperature. Wells were then washed by SPBS6T and then exposed to hu39D10 or its the variants in SPBS6T and incubated for 60 min at room temperature. The hu39D10/FcRn complex formed by the incubation was probed with an F(ab′)2 fragment of an anti-human kappa HRP conjugate (SourthernBiotechnology, Birmingham, Ala.; 1/5000 dilution in SPBS6T) for 30 min at room temperature. After washing with SPBS6T, 100 ul of TMB (Sigma) was loaded into each well for signal detection. […] The affinity of the IgG variants to FcRn was calculated and plotted using Prism software by GraphPad Software (La Jolla, Calif.).

[2] = molecular target: T1, human FcRn extracellular domain / beta2 …; test: ELISA, pH 6.0; ratio of EC50 values against hu39D10 with native IgG4 Fc
Method: as §1

Binder | EC50 [1] | fold increase in affinity for human FcRn against hu39D10 [2]
B1 | 3.8 nM | 
B2 | 0.81 nM | 4.7 fold
B3 | 0.81 nM | 
